# In patent US20110189093A1 (PROSCAN RX PHARMA, published 2011):
# B1: antibody PSf42.3 (antibody, V domains shown)
# VH: EVQLQQSGAELAKPGASVKLSCTGSGFNIKDTYMHWVKQRPEQGLEWIGGIDPETGNTKFDPRFQDKATITSDTSSNTVLLQLSSLTSEDTAVYYCANLGRPFAHWGQGTTVTVS
# VL: HSADPVSISCKSSQSLLHRDGKTYLNWVFQRPGQSPQRLIYLVSLVDSGVPDRFTGSGSGTDFTLKINRVEAEDLGVYYCWQGTHFPRTFGGGTKLEIKR
# B2: antibody PSf42.4 (antibody, V domains shown)
# VH: EVKLQQSGAELVKPGASVKLSCTASGFSIRDTYMHWVRQRPEQGLEWITGIDPENGNSKYAPRFQDKATIIADTSSNTVHLQLDTLTSEDTAVYYCTRELAYWGQGTTVTVS
# VL: DILMTQSPLTLSVIIGQPASFSCKSSHSLLHRDGRTYLNWLLQRPGQSPQRLIYLVSKLDSGVPDRFTGSGSGTDFTLKISRVEAEDLGVYYCWQGTHFPRTFGGGTKLEIKR
# B3: antibody PSf42.1 (antibody, V domains shown)
# VH: EVQLEESGAEFVRPGAAVKLSCTVSGLNIKDSYLHWVKQRPEQGLEWIGGIDPANGDVEYDPKFQGKAAITADTSSNTAYLRLSSLTSEDTAVYYCAPFPYWGAGTTVTVS
# VL: DILMTQSPLTLSVIIGQPASFSCKSSHSLLHRDGRTYLNWLLQRPGQSPQRLIYLVSKLDSGVPDRFTGSGSGTDFTLKISRVEAEDLGVYYCWQGTHFPRTFGGGTKLEIKR
# B4: antibody PSf47.1 (antibody, V domains shown)
# VH: EVKLQESGPDLVKPGASVKVSCKASGYTFTVYVIHWVIQKPGQGLEWIGYINPYNDGAEYNENFKGKATLTSDKSSSTAYMELSSLTSEDSAVYYCTRGENYYTSRYGFFDVWGQGTTVTVS
# VL: DILMPQSPSSLAVSAGEKVTMSCKSSQSLLNSRTRKNYLAWYQQKLGQSPKLLIYWASTRESGVPDRFTGSGSGTDFTLTISSVQAEDLAVYYCKQSYNFITFGAGTKLELKR
# notes: also called mAb PSf47.1
# B5: antibody PSf34.1 (antibody, V domains shown)
# VH: EVQLEESGAELVKPGASVKLSCTASGFYIKDTYIHWVKQRPEEVLEWIGGIDPADGDTRYDPKFQGKATITADTSSNSAYLHLTSLTSEDTAVYFCARELAYWGAGTTVTVS
# VL: not shown
# notes: also called mAb PSf34.1
# Target: T1, prostate specific membrane antigen (PSMA) on LNCaP cells (human, UniProt Q04609 1-750)
# T1 construct: also called PSMA-expressing cells
# T1 sequence (Q04609 whole entry): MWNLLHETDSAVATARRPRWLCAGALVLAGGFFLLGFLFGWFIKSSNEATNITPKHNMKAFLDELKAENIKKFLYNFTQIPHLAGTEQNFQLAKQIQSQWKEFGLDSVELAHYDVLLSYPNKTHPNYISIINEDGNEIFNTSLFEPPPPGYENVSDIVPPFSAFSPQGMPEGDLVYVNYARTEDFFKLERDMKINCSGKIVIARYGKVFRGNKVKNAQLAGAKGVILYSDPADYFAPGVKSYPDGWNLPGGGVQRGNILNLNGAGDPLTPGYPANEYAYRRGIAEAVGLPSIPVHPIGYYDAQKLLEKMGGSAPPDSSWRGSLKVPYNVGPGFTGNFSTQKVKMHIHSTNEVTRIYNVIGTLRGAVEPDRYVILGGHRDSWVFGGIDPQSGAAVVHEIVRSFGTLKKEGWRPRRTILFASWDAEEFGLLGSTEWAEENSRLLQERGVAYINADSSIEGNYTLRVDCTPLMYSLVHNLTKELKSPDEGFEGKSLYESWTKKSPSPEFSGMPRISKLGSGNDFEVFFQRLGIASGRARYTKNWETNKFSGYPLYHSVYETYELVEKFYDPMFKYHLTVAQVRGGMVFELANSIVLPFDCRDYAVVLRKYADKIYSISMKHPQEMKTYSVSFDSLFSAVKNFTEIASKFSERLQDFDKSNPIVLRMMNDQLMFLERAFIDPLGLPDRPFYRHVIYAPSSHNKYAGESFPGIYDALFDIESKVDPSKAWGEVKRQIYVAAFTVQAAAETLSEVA
# Test: saturation binding on whole LNCaP cells, detected with 125I goat anti-mouse IgG
# Method: Antibody binding assay: Saturation binding studies were performed on whole cells with purified anti-PSMA MAb followed by detection of cellbound MAb using ¹²⁵I-labeled goat anti-mouse IgG. Briefly, nearly confluent LNCaP cells were rinsed with ice-cold PBS and scraped in PBS containing the protease inhibitor cocktail described above. Cells (7.5×10⁶ per tube) were incubated with 100 μL of antibody diluted in complete RPMI to various concentrations for 1 h at room temperature. […] Following removal of unbound secondary antibody by centrifugation, the radioactivity associated with the cell pellet was determined using a gamma counter. Non-specific binding was determined in the presence of a 100-fold molar excess of the antibody antigen PSMA₄₉₀₋₅₀₀. […] For these experiments, a parallel sample in which the primary MAb was replaced by diluent served as a control for background binding of the secondary antibody and was less than 0.5%. Counts were analyzed by non-linear regression of total binding (Y) according to the law of mass action using the formula Y=Bmax*X/(Kd+X), where Bmax, Kd, and X represent the maximal binding, the concentration of ligand at half maximal binding, and the concentration of primary antibody, respectively. The ¹²⁵I-labeled goat anti-mouse IgG used in these experiments was radio-iodinated using the chloramine T method. Briefly, 10 μg of goat anti-mouse IgG whole molecule was incubated with 300 pmol of chloramine T and 90 μCi of [¹²⁵I] sodium iodide in a final volume of 25 μL containing 0.5 M sodium phosphate (pH 7.5) for 20 min at room temperature before quenching the reaction with 100 μL of sodium metabisulfite at 2.6 mg/mL in 0.5 M sodium phosphate buffer (pH 7.5). The labeled antibody was purified from free iodide by gel filtration on Sephadex G25. The amount of free iodide contaminating the labeled antibody was evaluated by ITLC-SG and never exceeded 1%.
Binder,Bmax [pmol/mg],Kd [nM]
B1,4.9,20.4
B2,5.1,34.1
B3,2.8,14.7
B4,4.6,–
B5,4.8,–
